Assay results published in US8551717B2, “Method for determining sumoylation” (Medizinische Hochschule Hannover, priority 2008, dated 2013).
Blank lines part the entries; values can stand above or below the compound they belong to.

What was measured:
MK2-U = target: T1, MK2-U (Homo sapiens, UniProt P49137+P63279); assay: Trans-SUMOylation by MK2-U; type: cell-based; conditions: protein 2 construct coexpressed with MK2-U and EGFP-SUMO1 in HEK293, western blot
T1 construct: expressed in transfected cells; host or cells: HEK293
T1 sequence (P49137+P63279 fused): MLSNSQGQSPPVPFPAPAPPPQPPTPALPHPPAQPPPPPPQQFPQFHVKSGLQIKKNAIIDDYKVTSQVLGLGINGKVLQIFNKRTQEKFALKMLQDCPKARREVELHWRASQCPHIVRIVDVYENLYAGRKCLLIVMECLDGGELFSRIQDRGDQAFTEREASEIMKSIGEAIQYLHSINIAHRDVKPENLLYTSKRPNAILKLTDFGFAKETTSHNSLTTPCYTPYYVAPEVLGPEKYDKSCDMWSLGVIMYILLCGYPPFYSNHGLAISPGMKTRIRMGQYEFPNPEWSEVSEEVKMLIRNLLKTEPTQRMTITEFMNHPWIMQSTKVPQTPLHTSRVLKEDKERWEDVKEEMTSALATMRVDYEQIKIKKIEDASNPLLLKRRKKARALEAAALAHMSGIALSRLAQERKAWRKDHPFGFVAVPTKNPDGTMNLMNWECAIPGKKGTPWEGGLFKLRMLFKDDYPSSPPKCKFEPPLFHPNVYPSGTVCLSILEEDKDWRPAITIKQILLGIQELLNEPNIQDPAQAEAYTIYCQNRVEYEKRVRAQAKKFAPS

JUN-U = target: T2, JUN-U (Homo sapiens, UniProt P05412+P63279); assay: Trans-SUMOylation by JUN-U; type: cell-based; conditions: protein 2 construct coexpressed with JUN-U and EGFP-SUMO1 in HEK293; western blot; Table 1
T2 construct: expressed in transfected cells; host or cells: HEK293
T2 sequence (P05412+P63279 fused): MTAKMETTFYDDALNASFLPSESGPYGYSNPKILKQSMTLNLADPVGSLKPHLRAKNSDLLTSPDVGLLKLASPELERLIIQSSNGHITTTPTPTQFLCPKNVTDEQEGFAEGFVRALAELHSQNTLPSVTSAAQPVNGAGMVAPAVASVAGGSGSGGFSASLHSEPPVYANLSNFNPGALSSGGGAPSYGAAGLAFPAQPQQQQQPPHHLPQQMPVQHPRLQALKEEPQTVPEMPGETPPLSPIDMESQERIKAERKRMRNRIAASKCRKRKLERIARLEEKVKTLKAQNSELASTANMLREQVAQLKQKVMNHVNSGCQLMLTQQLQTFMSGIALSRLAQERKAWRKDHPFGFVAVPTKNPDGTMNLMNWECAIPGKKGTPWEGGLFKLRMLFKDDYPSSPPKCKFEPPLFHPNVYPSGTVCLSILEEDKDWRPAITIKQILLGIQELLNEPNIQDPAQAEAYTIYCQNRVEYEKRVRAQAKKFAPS

STAT1-FRB and STAT1-FKBP = target: T3, STAT1-FRB and STAT1-FKBP (Homo sapiens, UniProt P42224+P42345+P62942); assay: USDDS: AP21967-induced in vivo SUMOylation of STAT1 fusion proteins, western blot; type: cell-based; conditions: HEK293
T3 construct: seven C-terminal amino acids of the human STAT1a in the STAT1-FKBP/FRB fusion proteins are missing; FKBP domain (in STAT1-FKBP); expressed in transfected cells; host or cells: HEK293
T3 sequence (P42224 1-743 limits assumed): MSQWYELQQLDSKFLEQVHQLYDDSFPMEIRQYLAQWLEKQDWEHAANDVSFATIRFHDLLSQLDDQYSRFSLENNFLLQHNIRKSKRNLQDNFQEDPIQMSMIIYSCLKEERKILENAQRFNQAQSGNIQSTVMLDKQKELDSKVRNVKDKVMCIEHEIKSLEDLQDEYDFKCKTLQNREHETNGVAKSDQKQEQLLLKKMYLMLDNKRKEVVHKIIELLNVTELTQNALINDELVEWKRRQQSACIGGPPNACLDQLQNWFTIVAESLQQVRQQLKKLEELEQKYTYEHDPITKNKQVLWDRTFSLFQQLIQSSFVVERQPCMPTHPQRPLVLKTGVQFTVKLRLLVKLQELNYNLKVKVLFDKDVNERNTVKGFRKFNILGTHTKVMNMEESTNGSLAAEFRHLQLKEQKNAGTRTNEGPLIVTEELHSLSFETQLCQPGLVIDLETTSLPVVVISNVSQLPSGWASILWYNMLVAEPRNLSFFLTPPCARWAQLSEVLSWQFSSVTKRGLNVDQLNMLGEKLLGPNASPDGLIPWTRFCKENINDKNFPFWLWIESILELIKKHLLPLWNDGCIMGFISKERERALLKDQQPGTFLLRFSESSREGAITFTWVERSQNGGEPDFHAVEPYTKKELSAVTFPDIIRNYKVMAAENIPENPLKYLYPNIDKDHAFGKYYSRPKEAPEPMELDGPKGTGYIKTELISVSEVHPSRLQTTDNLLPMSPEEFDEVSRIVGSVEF
T3 sequence (P63279 whole entry partner, the tested form may be a part): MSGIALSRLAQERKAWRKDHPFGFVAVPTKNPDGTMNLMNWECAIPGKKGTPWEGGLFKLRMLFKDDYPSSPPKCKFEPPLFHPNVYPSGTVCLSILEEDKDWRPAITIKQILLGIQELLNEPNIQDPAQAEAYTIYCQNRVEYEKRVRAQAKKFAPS
T3 sequence (P62942 2-108 limits assumed): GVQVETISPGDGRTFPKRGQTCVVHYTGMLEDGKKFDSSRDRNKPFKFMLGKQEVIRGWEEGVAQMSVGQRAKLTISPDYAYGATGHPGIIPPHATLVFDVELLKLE
T3 sequence (P42345 2021-2113 limits assumed): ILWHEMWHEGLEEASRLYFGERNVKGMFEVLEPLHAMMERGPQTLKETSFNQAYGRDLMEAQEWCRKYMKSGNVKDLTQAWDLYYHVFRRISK
Text: (§1) To identify new SUMOylation substrates and to study the function of SUMOylation the Ubc9/substrate dimerisation-dependent SUMOylation system (USDDS) was developed which consists of fusions of the SUMOylation substrate and of the SUMO-conjugating enzyme Ubc9 to the chemically activatable heterodimerisation domains FKBP and FRB, respectively, as shown in FIG. 2. When the substrate protein fused to FKBP is coexpressed with Ubc9-FRB, treatment of HEK293 cells with the rapamycin-related dimerizer AP21967 induces SUMOylation of the substrate protein fused to FKBP at its specific SUMOylation site. […] Dependent on an EcoRl site in the coding sequence, seven C-terminal amino acids of the human STAT1a in the STAT1-FKBP/FRB fusion proteins are missing. For the SUMOylation analysis HEK293 (human embryonic kidney cells) cells have been used. HEK293 cells were cultured in Dulbecco's modified Eagle's medium with high glucose, complemented with 10% fetal calf serum, 2 mM L-glutamine, 100 U/ml penicillin and […] streptomycin. We performed transfection of HEK293 cells using the polyethylenimine transfection reagent. HEK293 cells of a fresh confluent 10 cm plate were transferred on a 12-well plate. […]
(§2) When p53-FRB or STAT1-FRB were coexpressed with Ubc9-FKBP together with EGFP-SUMO1, no significant EGFP-SUMO1 conjugation of STAT1-FRB and of p53-FRB could be detected (FIG. 3A,B). […]

p53-FRB and p53-FKBP = assay: USDDS: AP21967-induced in vivo SUMOylation of p53 fusion proteins, western blot; type: cell-based, human; conditions: HEK293
Text: as §1, §2

STAT1-U = target: T4, STAT1-U (Homo sapiens, UniProt P42224+P63279); assay: Trans-SUMOylation by STAT1-U; type: cell-based; conditions: protein 2 construct coexpressed with STAT1-U and EGFP-SUMO1 in HEK293; western blot; Table 1
T4 construct: expressed in transfected cells; host or cells: HEK293
T4 sequence (P42224+P63279 fused): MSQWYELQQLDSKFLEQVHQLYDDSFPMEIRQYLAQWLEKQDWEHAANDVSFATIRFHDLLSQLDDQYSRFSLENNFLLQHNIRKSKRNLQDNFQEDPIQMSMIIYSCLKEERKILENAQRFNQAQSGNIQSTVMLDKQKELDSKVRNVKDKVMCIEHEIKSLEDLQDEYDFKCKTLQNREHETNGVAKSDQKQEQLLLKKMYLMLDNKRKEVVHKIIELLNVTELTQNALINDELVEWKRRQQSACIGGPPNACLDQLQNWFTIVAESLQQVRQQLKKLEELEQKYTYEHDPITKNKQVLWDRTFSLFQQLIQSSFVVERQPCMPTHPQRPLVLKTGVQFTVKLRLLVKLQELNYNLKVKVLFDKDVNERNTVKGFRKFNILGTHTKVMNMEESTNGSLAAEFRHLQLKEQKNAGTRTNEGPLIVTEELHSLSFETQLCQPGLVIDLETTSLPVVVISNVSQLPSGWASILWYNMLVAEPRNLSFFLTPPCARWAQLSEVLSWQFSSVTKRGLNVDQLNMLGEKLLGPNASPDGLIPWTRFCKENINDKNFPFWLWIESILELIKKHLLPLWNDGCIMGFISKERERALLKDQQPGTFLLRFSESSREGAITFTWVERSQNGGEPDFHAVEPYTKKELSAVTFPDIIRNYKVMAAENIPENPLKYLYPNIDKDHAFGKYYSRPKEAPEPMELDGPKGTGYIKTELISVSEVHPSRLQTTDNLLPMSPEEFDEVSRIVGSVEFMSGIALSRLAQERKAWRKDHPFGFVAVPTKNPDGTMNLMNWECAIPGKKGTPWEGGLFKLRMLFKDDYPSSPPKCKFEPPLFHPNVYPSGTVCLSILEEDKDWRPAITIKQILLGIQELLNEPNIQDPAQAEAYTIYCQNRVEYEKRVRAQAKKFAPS

STAT1 = assay: Interplay of STAT1 Y701 phosphorylation and K703 SUMOylation by USDDS, western blot; type: cell-based, human; conditions: HEK293, USDDS with AP21967 1 μM and interferon-β, any stimulation scenario
U-p38α = target: T5, U-p38α (Homo sapiens, UniProt P63279+Q16539); assay: Trans-SUMOylation by U-p38α; type: cell-based; conditions: protein 2 construct coexpressed with U-p38α and EGFP-SUMO1 in HEK293, western blot
T5 construct: expressed in transfected cells; host or cells: HEK293
T5 sequence (P63279+Q16539 fused): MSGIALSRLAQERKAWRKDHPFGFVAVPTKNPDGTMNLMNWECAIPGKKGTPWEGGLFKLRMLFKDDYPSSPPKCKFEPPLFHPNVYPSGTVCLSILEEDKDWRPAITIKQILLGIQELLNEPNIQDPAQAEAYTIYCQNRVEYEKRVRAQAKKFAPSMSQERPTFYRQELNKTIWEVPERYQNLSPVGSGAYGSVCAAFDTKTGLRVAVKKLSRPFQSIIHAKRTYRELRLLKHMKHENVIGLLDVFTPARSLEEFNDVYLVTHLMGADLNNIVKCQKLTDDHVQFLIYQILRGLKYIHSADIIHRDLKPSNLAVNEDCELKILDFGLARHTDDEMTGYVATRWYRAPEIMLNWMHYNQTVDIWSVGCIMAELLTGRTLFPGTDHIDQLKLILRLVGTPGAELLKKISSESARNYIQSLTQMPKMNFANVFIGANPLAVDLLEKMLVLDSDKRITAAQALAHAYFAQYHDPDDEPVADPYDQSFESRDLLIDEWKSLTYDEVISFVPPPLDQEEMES

U-MK2 = target: T6, U-MK2 (Homo sapiens, UniProt P49137+P63279); assay: Trans-SUMOylation by U-MK2; type: cell-based; conditions: protein 2 construct coexpressed with U-MK2 and EGFP-SUMO1 in HEK293, western blot
T6 construct: expressed in transfected cells; host or cells: HEK293
T6 sequence (P63279+P49137 fused): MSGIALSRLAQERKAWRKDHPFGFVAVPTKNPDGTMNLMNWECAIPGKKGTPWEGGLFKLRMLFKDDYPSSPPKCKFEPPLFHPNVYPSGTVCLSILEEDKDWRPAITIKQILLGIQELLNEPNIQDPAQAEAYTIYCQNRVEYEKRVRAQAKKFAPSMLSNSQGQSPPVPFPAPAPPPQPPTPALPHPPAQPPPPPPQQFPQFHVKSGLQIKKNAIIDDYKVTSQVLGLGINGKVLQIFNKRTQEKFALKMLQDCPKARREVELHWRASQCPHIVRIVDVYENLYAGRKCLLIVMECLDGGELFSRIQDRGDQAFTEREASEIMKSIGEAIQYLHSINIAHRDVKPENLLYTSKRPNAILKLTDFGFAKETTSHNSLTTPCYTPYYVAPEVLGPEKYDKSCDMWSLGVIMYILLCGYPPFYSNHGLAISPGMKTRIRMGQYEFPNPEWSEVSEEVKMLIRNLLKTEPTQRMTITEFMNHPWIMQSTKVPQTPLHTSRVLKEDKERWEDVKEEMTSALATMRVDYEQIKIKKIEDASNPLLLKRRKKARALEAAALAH

U-MK5 = target: T7, U-MK5 (Homo sapiens, UniProt P63279+Q8IW41); assay: Trans-SUMOylation by U-MK5; type: cell-based; set-up: key: (++), strong TransSUMOylation; (+), TransSUMOylation; (+/−) weak TransSUMOylation; (−) no detectable TransSUMOylation; conditions: protein 2 construct coexpressed with U-MK5 and EGFP-SUMO1 in HEK293; western blot; Table 1
T7 construct: expressed in transfected cells; host or cells: HEK293
T7 sequence (P63279+Q8IW41 fused): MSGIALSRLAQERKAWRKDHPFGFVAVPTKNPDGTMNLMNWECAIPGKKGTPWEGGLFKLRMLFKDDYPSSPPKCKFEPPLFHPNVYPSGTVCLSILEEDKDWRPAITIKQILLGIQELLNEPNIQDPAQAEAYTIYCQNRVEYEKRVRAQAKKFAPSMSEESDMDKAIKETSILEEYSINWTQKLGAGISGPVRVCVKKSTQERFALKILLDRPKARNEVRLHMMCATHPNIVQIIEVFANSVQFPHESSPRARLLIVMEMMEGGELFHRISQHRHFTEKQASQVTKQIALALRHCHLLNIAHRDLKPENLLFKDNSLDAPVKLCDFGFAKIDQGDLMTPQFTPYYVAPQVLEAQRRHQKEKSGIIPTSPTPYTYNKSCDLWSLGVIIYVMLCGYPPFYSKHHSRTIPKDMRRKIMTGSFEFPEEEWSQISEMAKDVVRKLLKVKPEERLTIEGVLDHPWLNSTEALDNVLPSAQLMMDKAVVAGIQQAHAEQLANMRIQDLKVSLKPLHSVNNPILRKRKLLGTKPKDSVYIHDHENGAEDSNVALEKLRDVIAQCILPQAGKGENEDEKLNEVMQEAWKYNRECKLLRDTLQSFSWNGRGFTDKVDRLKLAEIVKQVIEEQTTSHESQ
Text: To identify new SUMOylation substrates and to study the function of SUMOylation the Ubc9/substrate dimerisation-dependent SUMOylation system (USDDS) was developed which consists of fusions of the SUMOylation substrate and of the SUMO-conjugating enzyme Ubc9 to the chemically activatable heterodimerisation domains FKBP and FRB, respectively, as shown in FIG. 2. When the substrate protein fused to FKBP is coexpressed with Ubc9-FRB, treatment of HEK293 cells with the rapamycin-related dimerizer AP21967 induces SUMOylation of the substrate protein fused to FKBP at its specific SUMOylation site. […] Dependent on an EcoRl site in the coding sequence, seven C-terminal amino acids of the human STAT1a in the STAT1-FKBP/FRB fusion proteins are missing. For the SUMOylation analysis HEK293 (human embryonic kidney cells) cells have been used. HEK293 cells were cultured in Dulbecco's modified Eagle's medium with high glucose, complemented with 10% fetal calf serum, 2 mM L-glutamine, 100 U/ml penicillin and […] streptomycin. We performed transfection of HEK293 cells using the polyethylenimine transfection reagent. HEK293 cells of a fresh confluent 10 cm plate were transferred on a 12-well plate. After 12-24 h incubation about 70% cell confluence is reached. For each well 45 μl of serum/antibiotic free DMEM medium is mixed with 750 ng of the transfection-purity expression vector DNA (all together 47 μl) and vortexed. Then, 3 μl of vortexed polyethylenimin stock solution (1 mg/ml) is added and the mixture is vortexed. After incubation at room temperature for 10 min 450 μl fresh DMEM with antibiotics is added to the mixture and vortexed. The medium on the cells was then completely removed and immediately, the 500 μl transfection mix was added carefully to each well. The 12 well plate was rocked to ensure a proper distribution of the DNA/transfection reagent complex. After an incubation of the cells for 24 h at a 37° C. in a humidified CO2-incubator (5%) the cells were lysed in 150 μl Laemmli (2×) gel loading buffer (160 mM Tris-HCL, pH 6.8, 4% (w/v) sodium dodecyl sulphate (SDS), 20% (v/v) glycerol, 0.5% β-mercaptoethanol (v/v), 0.008% (w/v) bromophenol blue) and incubated for 10 min at 95° C. For western blot analysis the proteins were separated by SDS-PAGE, blotted on a PVDF membrane and developed with specific primary antibodies (α-Ubc9 (H81, Santa Cruz), α-pY701-STAT1 (Tyr701, Cell Signaling), α-STAT1 (Cell Signaling), α-p53 (1C12, Cell Signaling), α-SUMO1 (Cell Signaling), a horseradish peroxidase (HRP)-conjugated secondary antibody (different companies), the ECL+ (Amersham) or Immobilon™ Western (Millipore) and the LAS-3000 imaging system (Fuji).
As shown above, the SUMOylation of a protein of interest can be induced by the heterodimerisation with a binding protein fused to Ubc9. To find out if Trans-SUMOylation is useful for the characterisation of common protein interactions, protein binding pairs well known from the literature or found in two hybrid screens. […] Therefore the protein pairs were coexpressed with EGFP-SUMO1 in HEK293 cells and after 24h the transfectants were lysed and the protein extracts were analyzed in western blots.
Protein-protein interactions described in the cited references were tested for Trans-SUMOylation. Each specific protein-protein interaction was tested by coexpression of different combinations of protein 1 fused to Ubc9 (U) with protein 2 mostly fused two a tag (HA, FLAG, Myc, GST, ST). (++), strong TransSUMOylation; (+), TransSUMOylation; (+/−) weak TransSUMOylation; (−) no detectable TransSUMOylation; (MEKK1ca) the activated MAP3 kinase MEKK1, that can enhance protein SUMOylation, was coexpressed.
Protein-protein interaction of each pair of protein 1/protein 2 was tested by coexpression of different combinations of a protein 1 fused to Ubc9 (U) with protein 2 mostly fused two a Tag (HA, FLAG, GST, ST). […]

p53-U = target: T8, p53-U (Homo sapiens, UniProt P04637+P63279); assay: Trans-SUMOylation by p53-U; type: cell-based; conditions: protein 2 construct coexpressed with P53-U (p53-U) and EGFP-SUMO1 in HEK293; western blot; Table 1
T8 construct: expressed in transfected cells; host or cells: HEK293

CSNK2B-U = target: T9, CSNK2B-U (Homo sapiens, UniProt P63279+P67870); assay: Trans-SUMOylation by CSNK2B-U; type: cell-based; conditions: protein 2 construct coexpressed with CSNK2B-U and EGFP-SUMO1 in HEK293; western blot; Table 1
T9 construct: expressed in transfected cells; host or cells: HEK293

Compound: HA-JUN: JUN fused to HA tag
Trans-SUMOylation (MK2-U; Table 2): (+/−) | Trans-SUMOylation (JUN-U): +

Compound: GST-FOS: FOS fused to GST tag
Trans-SUMOylation (MK2-U; Table 2): −

Compound: STAT1-FKBP: human STAT1a fused to FKBP heterodimerisation domain
Trans-SUMOylation (STAT1-U): − | double modification of STAT1 by SUMOylation and Y701 phosphorylation (STAT1): no double modification | Trans-SUMOylation (MK2-U; Table 2): −

Compound: GST-ERK3: ERK3 fused to GST tag
Trans-SUMOylation (U-p38α; Table 2): − | Trans-SUMOylation (U-MK2; Table 2): − | Trans-SUMOylation (U-MK5): +

Compound: p53K386R-ST(377-389): p53K386R fused to SUMOylation site tag 377-389
Trans-SUMOylation (CSNK2B-U): + | Trans-SUMOylation (U-MK2; Table 2): −

Second part, led by results:

SUMOylation of STAT1-FKBP (STAT1-FRB and STAT1-FKBP; STAT1-FKBP in combination with Ubc9-FRB and EGFP-SUMO1, AP21967): induced SUMOylation | SUMOylation of STAT1-FRB (STAT1-FRB and STAT1-FKBP; STAT1-FRB coexpressed with Ubc9-FKBP and EGFP-SUMO1, AP21967 1 μM, western blot α-STAT1): strongly enhanced SUMOylation
Compound: CO[C@H]1[C@@H](O)[C@H](C)C[C@H](C)/C=C/C=C/C=C(\C)[C@@H](c2c[nH]c3c(C)cccc23)C[C@@H]2CC[C@@H](C)[C@@](O)(O2)C(=O)C(=O)N2CCCC[C@H]2C(=O)O[C@H]([C@H](C)C[C@@H]2CC[C@@H](O)[C@H](OC)C2)C[C@H](O)[C@H](C)/C=C(\C)[C@H]1O [AP21967]
SUMOylation of p53-FKBP (p53-FRB and p53-FKBP; p53-FKBP in combination with Ubc9-FRB and EGFP-SUMO1, AP21967): induced SUMOylation | SUMOylation of p53-FRB (p53-FRB and p53-FKBP; p53-FRB coexpressed with Ubc9-FKBP and EGFP-SUMO1, AP21967 1 μM, western blot α-p53): strongly enhanced SUMOylation

Trans-SUMOylation (U-p38α; Table 1): + | Trans-SUMOylation (U-MK2; Table 2): + | Trans-SUMOylation (p53-U): −
Compound: ERK1: ERK1, protein 2 construct without tag

Trans-SUMOylation (MK2-U; Table 1): − | Trans-SUMOylation (U-MK2; Table 1): −
Compound: HA-HSP27: HSP27 fused to HA tag
